# Substitutions are numbered along the chain they refer to.
# B1: OxDC‐DSSN (OxDC bearing the Ser161Asp, Glu162Ser, Asn163Ser, Ser164Asn mutations) (enzyme, Bacillus subtilis)
# chain: MKKQNDIPQPIRGDKGATVKIPRNIERDRQNPDMLVPPETDHGTVSNMKFSFSDTHNRLEKGGYAREVTVRELPISENLASVNMRLKPGAIRELHWHKEAEWAYMIYGSARVTIVDEKGRSFIDDVGEGDLWYFPSGLPHSIQALEEGAEFLLVFDDGSFDSSNTFQLTDWLAHTPKEVIAANFGVTKEEISNLPGKEKYIFENQLPGSLKDDIVEGPNGEVPYPFTYRLLEQEPIESEGGKVYIADSTNFKVSKTIASALVTVEPGAMRELHWHPNTHEWQYYISGKARMTVFASDGHARTFNYQAGDVGYVPFAMGHYVENIGDEPLVFLEIFKDDHYADVSLNQWLAMLPETFVQAHLDLGKDFTDVLSKEKHPVVKKKCSK
# notes: Oxalate decarboxylase (OxDC) of Bacillus subtilis with four substitutions in the lid; made by site-directed mutagenesis of pET24a-OxDC (thrombin cleavage site and 6xHis tag at the C-terminus); The PDB entries are of the wild-type parent; source: two-step purification giving untagged protein; not shown: His6, C-terminal, cleaved
# B2: Oxalate decarboxylase (OxDC) from Bacillus subtilis, wild type (enzyme)
# chain: B1 chain with D161S, S162E, S163N, N164S
# notes: Oxalate decarboxylase (OxDC) of Bacillus subtilis; cDNA with a thrombin cleavage site and a 6xHis tag at the C-terminus in pET24a(+); homohexamer of 264 kDa; Residues of the thrombin site may remain at the C-terminus after cleavage; Purification details are in the Supporting Information; also called wild‐type OxDC; source: two-step purification giving untagged protein; not shown: His6, …
# What was measured:
# OxDC [1] = molecular target: T1, OxDC (Bacillus subtilis, UniProt O34714, S161D/E162S/N163S/S164N); experiment: turbidity at […] nm, protection from aggregation; assay type: binding; settings: 50 mM sodium glyoxylate; 16 mM Tris-HCl pH 7.2, 140 mM NaCl, 25 C; substrate analogue, active site (indirect evidence)
# T1 construct: synthetic cDNA (GeneScript) in pET24a(+), thrombin site and C-terminal 6xHis; expressed in E. coli; two-step purification, untagged enzyme used; homohexamer 264 kDa, Mn-dependent
# OxDC [2] = molecular target: OxDC (Bacillus subtilis, UniProt O34714); experiment: oxalate decarboxylase activity, Michaelis-Menten fit; assay type: biochemical; settings: pH 4.2; 140 mM NaCl; no o-phenylenediamine; potassium oxalate 0.1-250 mM
# Chain of OxDC (Bacillus subtilis, UniProt O34714) (O34714 whole entry): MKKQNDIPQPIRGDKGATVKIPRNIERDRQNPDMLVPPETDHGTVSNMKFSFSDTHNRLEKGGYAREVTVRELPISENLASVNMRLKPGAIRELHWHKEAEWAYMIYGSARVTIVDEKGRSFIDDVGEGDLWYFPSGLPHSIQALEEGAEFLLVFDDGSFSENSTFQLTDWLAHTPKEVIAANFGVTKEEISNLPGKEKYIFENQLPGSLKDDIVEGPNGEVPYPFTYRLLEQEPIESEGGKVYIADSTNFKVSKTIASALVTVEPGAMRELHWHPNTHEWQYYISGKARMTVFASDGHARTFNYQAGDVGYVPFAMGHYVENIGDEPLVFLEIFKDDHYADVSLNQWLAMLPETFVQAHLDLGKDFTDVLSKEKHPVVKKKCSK
# [3] = molecular target: the molecule itself; experiment: dynamic light scattering; 0.5 mg/mL enzyme, 25°C, 52 mM sodium acetate pH 4.2, 140 mM NaCl; self-association (hexamer)
# purified protein = substrate: O=C(O)C(=O)O; experiment: purified protein; settings: pH 4.2, 140 mM NaCl, potassium oxalate 10-200 mM
molecule,measurement,setting,value
O=CC(=O)O [sodium glyoxylate],"turbidity at 600 nm, protection from aggregation",OxDC [1],We found that NaGlyox prevents aggregation
O=C(O)C(=O)O [oxalate],Km,OxDC [2],8 ± 0.8 mM
B1,stoichiometry N,[3],6
same,Km,purified protein,0.30 ± 0.07 mM
same,Vmax,purified protein,2 µmol/min/mg
same,kcat,purified protein,1.4 s⁻¹
B2,stoichiometry N,[3],6

# From PMC6850040 (Iubmb Life, 2019)
